The target in this assay is E2F1 (UniProt Q01094). Briefly: proximity ligation; in situ PLA in fixed, permeabilised H1299 cells, under normal (EV) and GAr-induced mRNA translation stress conditions; Duolink PLA kit; the antibodies of the protein-protein PLA are not told.
Sequence of UniProt Q01094 (Q01094 whole entry): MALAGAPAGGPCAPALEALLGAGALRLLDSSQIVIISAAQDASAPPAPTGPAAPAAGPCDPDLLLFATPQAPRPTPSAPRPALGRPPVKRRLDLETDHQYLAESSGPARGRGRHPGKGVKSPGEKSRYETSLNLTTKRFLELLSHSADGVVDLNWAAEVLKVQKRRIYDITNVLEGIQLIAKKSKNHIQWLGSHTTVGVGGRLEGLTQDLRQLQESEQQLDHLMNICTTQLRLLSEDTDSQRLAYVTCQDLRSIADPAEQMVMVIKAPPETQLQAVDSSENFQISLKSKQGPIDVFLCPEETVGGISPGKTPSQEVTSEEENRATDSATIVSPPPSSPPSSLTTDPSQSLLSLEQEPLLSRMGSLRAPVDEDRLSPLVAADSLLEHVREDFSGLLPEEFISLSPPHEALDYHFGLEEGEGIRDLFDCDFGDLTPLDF

With “MDM2 (from UniProt Q00987 1-491) (natural protein)”, the PLA interactions per cell (interactions per cell) was determined as 20.

These data come from paper PMC7337897.
